Assay results as given in the supplement of paper PMC10724198.
± gives the standard deviation of the averaged measurements.

System: Saccharomyces cerevisiae
Experiment: protein stability index of tFT-peptide fusion (C-terminal peptide) (PSI (0-1 scale)); higher = more stable (slower turnover)
Details: genetic background: wild type; temperature: 30 C
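Also: PSI is a weighted mean of sequencing reads over stability bins, variants kept only with over 10 reads, mCherry proximal and sfGFP distal, peptide attached via GGGS linker.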

Row | Sequence | protein stability index
1 | SHSHMRRLKMYR | 0.717 ± 0.089
2 | SHTAWEQRVPKQ | 0.729 ± 0.02
3 | SHVPLAKLSLFP | 0.756 ± 0.024
4 | SIDGFAFCVGGV | 0.737 ± 0.058
5 | SIKKFRTRKRRR | 0.67 ± 0.12
6 | SIRHPYEFFARS | 0.738 ± 0.031
7 | SIRLGGSVVELV | 0.694 ± 0.041
8 | SISIGVRHSRPP | 0.609 ± 0.033
9 | SISLSLSQSDRR | 0.614 ± 0.016
10 | SKEKKRPDNKTF | 0.71 ± 0.048
11 | SKKKRQNQLIKM | 0.7527 ± 0.0032
12 | SKKKTKKRRKKN | 0.698 ± 0.023
13 | SKNEFKKIMKKY | 0.711 ± 0.083
14 | SKSNIAGIRKEL | 0.6774 ± 0.0063
15 | SKSRGVIVTVMV | 0.5681 ± 0.00072
16 | SLAPPVILPSHP | 0.659 ± 0.041
17 | SLATFRTLLPES | 0.667 ± 0.019
18 | SLAVAPHIATQQ | 0.701 ± 0.011
19 | SLAVDVRVSWEI | 0.704 ± 0.017
20 | SLCPRVCSERVP | 0.722 ± 0.031
21 | SLCWDVLFLPVV | 0.736 ± 0.064
22 | SLELWPGAKGAP | 0.702 ± 0.1
23 | SLFFFNFPLCAL | 0.559 ± 0.019

Row | Sequence | protein stability index
24 | SLFGMACDGGLP | 0.6873 ± 0.0043
25 | SLFLFCLRCLQF | 0.576 ± 0.037
26 | SLFPSEPRPPSL | 0.719 ± 0.03
27 | SLGAPPAVVSSY | 0.6822 ± 0.0033
28 | SLHSPPHPPPHA | 0.673 ± 0.011
29 | SLLHSIPSSPPF | 0.729 ± 0.041
30 | SLLLPLFLPPSL | 0.723 ± 0.0086
31 | SLLLPPPPPSPH | 0.731 ± 0.042
32 | SLLPAPTPCPPP | 0.701 ± 0.033
33 | SLLPGGHRWAGI | 0.659 ± 0.025
34 | SLLRSPSLPQSN | 0.634 ± 0.095
35 | SLLSSPFPCLRQ | 0.766 ± 0.087
36 | SLLYIQDFVSGV | 0.683 ± 0.019
37 | SLMLDGRSTKAA | 0.6912 ± 0.0035
38 | SLMRRFRGQWRV | 0.71 ± 0.06
39 | SLPCLFPPPLLP | 0.726 ± 0.045
40 | SLPPDPPSSYSP | 0.632 ± 0.044
41 | SLPPPAAPLPFP | 0.7346 ± 0.00096
42 | SLPPPPSQLRPL | 0.726 ± 0.015
43 | SLPPPSPSPSLS | 0.649 ± 0.034
44 | SLPPTLPPRSCP | 0.6211 ± 0.0019
45 | SLPQAPLRPAPS | 0.656 ± 0.046
46 | SLPRSHRRGPVP | 0.663 ± 0.014

Row | Sequence | protein stability index
47 | SLPSWPPAPLPG | 0.703 ± 0.025
48 | SLPVLSSRTSIQ | 0.687 ± 0.012
49 | SLPVSSPIRILF | 0.6326 ± 0.0015
50 | SLQAYASALIHV | 0.687 ± 0.0098
51 | SLRKVTEKDKRT | 0.677 ± 0.064
52 | SLRRLSPLPLAS | 0.7 ± 0.04
53 | SLSEEWAHIGGL | 0.643 ± 0.0072
54 | SLSERPKFSIYV | 0.656 ± 0.049
55 | SLSGSPIPFIRL | 0.764 ± 0.072
56 | SLSIAPAPLDFP | 0.655 ± 0.084
57 | SLSLFPPRRLLP | 0.734 ± 0.088
58 | SLSSTVPRFCEV | 0.6241 ± 0.0028
59 | SLSVPTTLFLFS | 0.7 ± 0.017
60 | SLTLVCRKYILL | 0.633 ± 0.024
61 | SLVAALHRPTFV | 0.679 ± 0.034
62 | SLVCCGPVWVFL | 0.573 ± 0.022
63 | SLVLLSACRFGF | 0.654 ± 0.073
64 | SLVPFSPPRSPP | 0.689 ± 0.083
65 | SLVVFGFGGYLL | 0.686 ± 0.021
66 | SLWPLFVDVVCL | 0.498 ± 0.042
67 | SMCAFRPFPFSS | 0.70891 ± 0.00011
68 | SMCSVAGVWWLG | 0.728 ± 0.062
69 | SMDISYLISFQR | 0.7426 ± 0.0049

Row | Sequence | protein stability index
70 | SMYHSCTFRTTV | 0.586 ± 0.021
71 | SMYLPSSSDVLS | 0.736 ± 0.014
72 | SNGTRGSKLPAI | 0.685 ± 0.055
73 | SNIGFLLCSLFL | 0.59078 ± 4.5e-05
74 | SNLYNSENVPVD | 0.709 ± 0.041
75 | SPAARPLFRTIS | 0.61 ± 0.054
76 | SPAPPSQFPSFA | 0.818 ± 0.11
77 | SPCPLTVAPIIP | 0.644 ± 0.056
78 | SPCTPSRLQPSS | 0.65 ± 0.027
79 | SPDHATYHNPAR | 0.76 ± 0.074
80 | SPFPAPCVFPSR | 0.761 ± 0.1
81 | SPGARRRGGAGR | 0.659 ± 0.047
82 | SPIHSLNYASSC | 0.7217 ± 0.0015
83 | SPLAPLPPPPLT | 0.884 ± 0.1
84 | SPLDEYIDSVPA | 0.726 ± 0.017
85 | SPLLLLPAPPPP | 0.673 ± 0.014
86 | SPLLPPRSPPLP | 0.752 ± 0.032
87 | SPLLVLTPLFPP | 0.651 ± 0.074
88 | SPLPHPSPPPSP | 0.662 ± 0.016
89 | SPLPPPRSSSPP | 0.76 ± 0.14
90 | SPLPPPSHALLP | 0.712 ± 0.089
91 | SPLPRSLPPLPP | 0.654 ± 0.019
92 | SPLSLPPPHPPP | 0.654 ± 0.0069

Row | Sequence | protein stability index
93 | SPNAPMPPRPRH | 0.594 ± 0.033
94 | SPPICLPLFRVR | 0.65 ± 0.017
95 | SPPLCAPPHPPA | 0.679 ± 0.04
96 | SPPLLHLSNSRH | 0.654 ± 0.059
97 | SPPLNSFPPTPP | 0.62 ± 0.068
98 | SPPLPPLPLLQL | 0.696 ± 0.021
99 | SPPLRSRSGSFL | 0.699 ± 0.062
100 | SPPLTSPPPAPP | 0.7 ± 0.017
101 | SPPPALPPSSPS | 0.657 ± 0.025
102 | SPPPAPPRSGPL | 0.651 ± 0.051
103 | SPPPGPAPPMSP | 0.731 ± 0.03
104 | SPPPHPPAAPDS | 0.6626 ± 0.0058
105 | SPPPLPPSPLSS | 0.701 ± 0.046
106 | SPPPLPPVRPPV | 0.722 ± 0.033
107 | SPPPMSPLLRPA | 0.653 ± 0.033
108 | SPPPPLELIPSP | 0.534 ± 0.025
109 | SPPPPSRLPPPP | 0.748 ± 0.096
110 | SPPRPPPPSPPF | 0.768 ± 0.015
111 | SPPRPPPVPPPP | 0.617 ± 0.054
112 | SPPRSSRTHAPP | 0.7108 ± 0.006
113 | SPPSLRLPPPPA | 0.772 ± 0.021
114 | SPPSLYRRVRPS | 0.63 ± 0.084
115 | SPPSRASFPPPS | 0.682 ± 0.022

Row | Sequence | protein stability index
116 | SPRLPPPPPLPP | 0.651 ± 0.11
117 | SPRLPPSTHSPP | 0.677 ± 0.15
118 | SPRLSSCPPAGF | 0.749 ± 0.017
119 | SPRPLFPPHRPT | 0.651 ± 0.044
120 | SPRPPLLLPVTV | 0.53 ± 0.26
121 | SPRRFVVVSGQG | 0.643 ± 0.012
122 | SPRRSPLLLLPL | 0.723 ± 0.064
123 | SPRSATAPPPLP | 0.71 ± 0.028
124 | SPSFSLLFPFLL | 0.657 ± 0.037
125 | SPSPLSLRLPPP | 0.632 ± 0.028
126 | SPSPPLPSRLIL | 0.673 ± 0.026
127 | SPSRPRPPPHAP | 0.7624 ± 0.00086
128 | SPSSFLLSPPIP | 0.764 ± 0.071
129 | SPSTPPPPSPPV | 0.647 ± 0.017
130 | SPTALPPPPVPP | 0.662 ± 0.041
131 | SPTLSPPPPLAL | 0.667 ± 0.031
132 | SPTRMSAFVRLD | 0.739 ± 0.071
133 | SPTSPAPPPNAS | 0.67 ± 0.0092
134 | SPWERTEMTFPR | 0.822 ± 0.18
135 | SPYVGVALGGVW | 0.704 ± 0.012
136 | SQVRYIANRKDG | 0.635 ± 0.091
137 | SREEWQSSKLRD | 0.784 ± 0.089
138 | SREYKRRTPSSK | 0.718 ± 0.03

Row | Sequence | protein stability index
139 | SRFEPLSCEQCS | 0.66 ± 0.05
140 | SRFFFSPRLCVP | 0.604 ± 0.033
141 | SRFKTVDCWKVW | 0.697 ± 0.097
142 | SRFLTPLPLAMF | 0.592 ± 0.018
143 | SRFQFCCCLFFF | 0.578 ± 0.0074
144 | SRGAFGPCEFFL | 0.712 ± 0.0076
145 | SRGGGRSEGGEG | 0.695 ± 0.033
146 | SRGGSGKDTGRT | 0.657 ± 0.04
147 | SRGLVVYMDALR | 0.692 ± 0.028
148 | SRGMRNPLSADR | 0.645 ± 0.098
149 | SRGRTRLVAPIV | 0.66 ± 0.14
150 | SRHIFAPFGLFG | 0.726 ± 0.056
151 | SRHVAGVGGGEV | 0.652 ± 0.019
152 | SRKIAPNGTATL | 0.706 ± 0.012
153 | SRKTDTRLTMIN | 0.692 ± 0.032
154 | SRLMGLGLLCVG | 0.5272 ± 0.0013
155 | SRPPILAHPTPS | 0.707 ± 0.049
156 | SRPPRSPPLPPV | 0.686 ± 0.046
157 | SRPPSPPLCHPA | 0.736 ± 0.054
158 | SRPRPPHTLLRP | 0.688 ± 0.065
159 | SRPRTTRKAASS | 0.674 ± 0.012
160 | SRRDRGHWSVRS | 0.6198 ± 0.0039
